Drawing on patent US20110301228A1, this text covers relative fluorescence units released on cleavage of the FRET peptide (medium of AdhGRE.MMP1-infected, DEX-treated cells) (relative fluorescence units) and relative fluorescence units released on cleavage of the FRET peptide (medium of AdhGRE.MMP1-infected, untreated cells) (relative fluorescence units) for one substance.

The experiment deals with 5-FAM/QXL520 labeled MMP substrate FRET peptide (SensoLyte 520 MMP-1 Assay Kit, AnaSpec). The experiment can be described thus: cell-based or functional assay.

Regarding “recombinant human MMP1 (wild-type), secreted by AdhGRE.MMP1-infected HTM cells and activated with APMA (active form, 41 kDa) (from UniProt P03956 100-469) (enzyme)”, the relative fluorescence units released on cleavage of the FRET peptide (medium of AdhGRE.MMP1-infected, DEX-treated cells) (relative fluorescence units) stood at 59000 and the relative fluorescence units released on cleavage of the FRET peptide (medium of AdhGRE.MMP1-infected, untreated cells) (relative fluorescence units) was found to be 5710.
